Laboratory results as given in patent US20240271152A1, “ENHANCING NITROGEN FIXATION WITH FUN” (Aarhus Universitet, published 2024).

T1: FUN DNA-binding domain (bZIP) (Lotus japonicus)
T1 chain: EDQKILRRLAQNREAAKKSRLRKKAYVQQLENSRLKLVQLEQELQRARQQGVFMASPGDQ

B1: NRT3.1 P3 (dsDNA)
DNA 1: AGACCTATTTTCTGACTCAATGTAGAGGGT
DNA 2: ACCCTCTACATTGAGTCAGAAAATAGGTCT
B2: FUN-GFP (FUN fused to green fluorescent protein) (other)
chain: MQGFKTAQGNSHLYCHPSSFLLRGDDTSRNHTRFSDLGELQHSSNIFQQDDAVDLSSSNLPCSMYSVKSCNVVGGGSNMQYGTLNTNLGSAEIVSTGAGCLETGQQLMYHKEISMATMPMGNGHVENWADSSGMADNSQQTDDTSTDVDTDDKIQSNRDKRGTHMVVHSRDQTKSKPEDQKILRRLAQNREAAKKSRLRKKAYVQQLENSRLKLVQLEQELQRARQQGVFMASPGDQSHLAVGGANGASAFDMEYAHWVDEHQRLLTDLRSALNSQMGDNELHLLVDGVMAHYDELFRLKSLGAKADVFHMHSGLWKTPAERCFMWLGGFRSTELLKIVKNHLEPLTEPQLMGIDNLLRCAQQGEDALTQGMEALQQALVDTLSSTSLGPAGAGNVADYMGQMAIAMGKLATLESFLHSADLVKQQTLQQLQRILTTRQMARALLVRNDYISRLRALSSLWLARPRESSVMSSLPPSNIE
notes: Expressed inside plant cells, where it is nuclear (N. benthamiana leaves, Lotus hairy roots), not on the cell surface; also called pro35S:FUN-GFP; proUbi:FUN-GFP; not shown: eGFP fused to the FUN CDS
B3: NRT3.1 P1 (dsDNA)
DNA 1: CGTTCATTAATATGACATCAGAATTTCTCT
DNA 2: AGAGAAATTCTGATGTCATATTAATGAACG
B4: HO1 P1 (dsDNA)
DNA 1: TGTAATAACTTGTGAGCGAAGCAGGGATCC
DNA 2: GGATCCCTGCTTCGCTCACAAGTTATTACA
B5: NRT3.1 P2 (dsDNA)
DNA 1: GGTTTTTATTTTTGACCTCAGAGGGGATCG
DNA 2: CGATCCCCTCTGAGGTCAAAAATAAAAACC
B6: NRT2.1 P1 (dsDNA)
DNA 1: ACAAGTAGCTTATGACGTACGACATATAGT
DNA 2: ACTATATGTCGTACGTCATAAGCTACTTGT
B7: AS1 P1 (dsDNA)
DNA 1: CATGTGGGCTTTTGACGAAGGTTCAAGTAG
DNA 2: CTACTTGAACCTTCGTCAAAAGCCCACATG
B8: NRT2.1 P4 (dsDNA)
DNA 1: AGATTTAAGTTGACGTATTAATGACAATGA
DNA 2: TCATTGTCATTAATACGTCAACTTAAATCT
B9: HO1 P2 (dsDNA)
DNA 1: TCGAGCCTGCCTTGAGCTTGTCTTCTCCAT
DNA 2: ATGGAGAAGACAAGCTCAAGGCAGGCTCGA
B10: NAC094 P1 (dsDNA)
DNA 1: AGGAGAGGTTTGTGAGCATCAGCAAAGTGT
DNA 2: ACACTTTGCTGATGCTCACAAACCTCTCCT

Tests used:
[1] = biological target: T1, FUN DNA-binding domain (bZIP); test: EMSA; same buffer, 37 C; conditions: chain copies: 2; label: 5' 6-FAM
Description: (§1) The purified FUN DNA binding domain (residues 178-237) was incubated with the probes at 37° C. for 60 min in EMSA buffer (25 mM Tris-HCl pH8.0, 80 mM NaCl, 35 mM KCl, 5 mM MgCl₂). After incubation, the reaction mixture was electrophoresed in 6% native polyacrylamide gel and then labelled DNA was detected with the Typhoon scanner (Fujifilm). Probes without 6-FAM-label served as competitors, while probes with mutation in the core binding sites (TGACG) served as mutants.
(§2) The promoter region of Nrt2.1 had four putative FBSs (P1-P4), the promoter region of Ho1 had two FBSs (P1 and P2), the promoter region of NAC094 had one FBS (P1), the promoter region of Nrt3.1 had three FBSs (P1, P2, and P3), and the promoter region of AS1 had one FBS (P1), all of which are illustrated in FIG. 2C. EMSA was conducted to test whether the FUN DNA-binding domain bound probes representing the FBSs.

[2] = biological target: the molecule itself; test: confocal imaging of FUN-GFP in N. benthamiana leaves infiltrated with 500 µM ZnCl2
[3] = biological target: T1, FUN DNA-binding domain (bZIP); test: EMSA; 25 mM Tris pH 8.0, 80 mM NaCl, 35 mM KCl, 5 mM MgCl2, 37 C; conditions: chain copies: 2; label: 5' 6-FAM
Description: as §1, §2

[4] = biological target: T1, FUN DNA-binding domain (bZIP); test: EMSA; same buffer, 37 C; printed reverse strand identical to forward; conditions: chain copies: 2; label: 5' 6-FAM
Description: as §1, §2

| Binder | binding result [1] | further results |
| --- | --- | --- |
| B1 | binds | – |
| B2 | – | binding result [2]: binds |
| B3 | binds | – |
| B4 | binds | – |
| B5 | binds | – |
| B6 | – | binding result [3]: binds |
| B7 | – | binding result [4]: binds |
| B8 | binds | – |
| B9 | binds | – |
| B10 | binds | – |
